This passage reports protein stability index results from the supplement of paper PMC10567573.

± gives the standard deviation.

This data set in a line: protein stability index of a GFP-peptide fusion (GPS, HEK-293T) (PSI 1-6); higher = more stable. The note with it: c terminus: a fixed tail appended.
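Further: 24-mer peptide tiles fused after GFP, lentivirally expressed, FACS-sorted into six equal bins by GFP/DsRed ratio, decoded by Illumina sequencing, PSI is the read-weighted mean bin number.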

Turning to YSKTWTKQPDLTMVRKIGCYAAMK [GAN], the protein stability index runs as follows: (treatment: DMSO) 2.92 ± 0.96; (treatment: MLN4924 1 uM, 8 h) 2.42 ± 0.19.
For YSPAVMNYSIPSNVTNLEGGPGRQ [ESR2] the same measures were 3.8 ± 0.4 and 3.75 ± 0.4.
For YSYVVSRPQPRGLLGWGYYLIMLP [FAF2], the protein stability index (treatment: DMSO) was determined as 2.89 ± 0.57 and the protein stability index (treatment: MLN4924 1 uM, 8 h) was 2.16 ± 0.37.
For YTRLGEMNNAVRNLQELLELDSSS [CEP70] the same measures were 3.77 ± 0.22 and 4.06 ± 0.17.
The matching figures for YTSPDKLKDIFMFITRQLKGLEDT [PDS5B]: 3.62 ± 0.19 and 3.84 ± 0.3.
YVSLGRLGAAKGALHPGCFAPLHP [CEBPB]: the protein stability index amounted to 3.44 ± 0.94 (treatment: DMSO) and 2.73 ± 0.17 (treatment: MLN4924 1 uM, 8 h).
As to YYPRVQHYRELLDSLPMDAYTHGC [GDAP1], the protein stability index worked out at 2.21 ± 0.17 (treatment: DMSO) and 2.32 ± 0.23 (treatment: MLN4924 1 uM, 8 h).
Regarding YYRGFTLFQTHENREHLVMMEKIL [CLK3], the protein stability index (treatment: DMSO) is 2.31 ± 0.31 and the protein stability index (treatment: MLN4924 1 uM, 8 h) turned out to be 2.34 ± 0.37.
